Target: tau seeds in spinal cord homogenates of P301S transgenic mice (aggregated transgenic human tau) (human), P10636
Experiment: cell-based or functional assay

tau seeds in spinal cord homogenates of P301S transgenic mice (aggregated transgenic human tau) (human), P10636, sequence (P10636 other isoform, or with tags, fused parts or gaps P301S P301S): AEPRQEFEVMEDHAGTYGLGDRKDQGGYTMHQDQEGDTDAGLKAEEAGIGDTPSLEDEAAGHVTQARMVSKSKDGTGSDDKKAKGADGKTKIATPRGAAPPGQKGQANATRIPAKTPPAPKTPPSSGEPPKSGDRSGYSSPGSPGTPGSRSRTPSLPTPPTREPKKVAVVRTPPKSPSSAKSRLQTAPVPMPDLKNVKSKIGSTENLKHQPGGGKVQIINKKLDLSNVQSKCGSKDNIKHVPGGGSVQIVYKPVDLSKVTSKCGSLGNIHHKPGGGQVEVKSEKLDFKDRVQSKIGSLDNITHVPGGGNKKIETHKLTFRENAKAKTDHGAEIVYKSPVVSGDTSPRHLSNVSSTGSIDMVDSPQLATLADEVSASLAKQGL

- Tau aggregate induction (K18 aggregate formation, FRET-positive HEK cells counted by FACS): 3 nM
B1: PT82 mAb, recombinantly expressed (mouse IgG2a/kappa) (antibody, V domains shown)
VH: EVKLEESGGGLVQPGGSMKLSCVASGFTFSNYWMNWIRQSPEKGLEWVAQIRLQSDNYATRYAESVKGRFTISRDESKTSVYLQMNNLRTEDTGIYYCTGGTTYWGQGTLVTVSA
VL: DIVMTQSQKFMSTSVGDRVSITCKASQNVGTAVAWYQQKPGQSPKLLIYSASIRYTGVPDRFTGSGSGTDFTLTINYMQSEDLADYFCQQFSSYPYTFGGGTKLEIK
